# From the supplement of paper PMC10598134
# ± gives the standard deviation.
# Experiment: collision cross section of modified peptide (TIMS, N2, iRT-aligned); higher = larger / more extended gas-phase ion
# Method: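 1/K0 was aligned run-wise to spiked iRT peptides and converted to CCS in N2 (Mason-Schamp). Values are the mean of 1-3 technical replicates for the most abundant feature at each charge state.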
# [1] = charge state: 3, modification: Propionyl
# [2] = charge state: 2, modification: Methyl (K)
# [3] = charge state: 3, modification: Methyl (K)
# [4] = charge state: 2, modification: Acetyl (K)
# [5] = charge state: 3, modification: Acetyl (K)
# [6] = charge state: 2, modification: GlyGly (K)
# [7] = charge state: 3, modification: GlyGly (K)
# [8] = charge state: 2, modification: Nitro (Y)
# [9] = charge state: 2, modification: Butyryl
# [10] = charge state: 3, modification: Dimethyl (K)
# [11] = charge state: 2, modification: Biotin
# [12] = charge state: 3, modification: Biotin
# [13] = charge state: 2, modification: hydroxyisobutyryl
# [14] = charge state: 2, modification: Citrullination (R)
# [15] = charge state: 3, modification: Citrullination (R)
# [16] = charge state: 2, modification: Dimethyl (K)
# [17] = charge state: 2, modification: Glutarylation
# [18] = charge state: 3, modification: hydroxyisobutyryl
# [19] = charge state: 2, modification: Phospho (Y)
# [20] = charge state: 2, modification: Malonyl
# [21] = charge state: 2, modification: Hydroxyproline
# [22] = charge state: 3, modification: Hydroxyproline
# [23] = charge state: 2, modification: Propionyl
# [24] = charge state: 2, modification: Crotonyl
# [25] = charge state: 3, modification: Malonyl
# [26] = charge state: 2, modification: HexNAc (ST)
# [27] = charge state: 2, modification: Succinyl
# [28] = charge state: 3, modification: Succinyl
# [29] = charge state: 2, modification: Formyl
# [30] = charge state: 2, modification: Trimethyl (K)
# [31] = charge state: 3, modification: Trimethyl (K)
# [32] = charge state: 3, modification: Formyl
# [33] = charge state: 3, modification: Crotonyl
substance,measurement,setting,value
VSPASSVDSNIPSSQGYKK [_VSPASSVDSNIPSSQGYK(Propionyl)K_],collision cross section,[1],557.31 Å²
ISSNFSSIIAEKLR [_ISSNFSSIIAEK(Methyl (K))LR_],collision cross section,[2],438.59 ± 1.7 Å²
same,collision cross section,[3],507.3 ± 3.6 Å²
VGLQVVAVKAPGFGDNR [_VGLQVVAVK(Acetyl (K))APGFGDNR_],collision cross section,[4],442.66 ± 2 Å²
same,collision cross section,[5],493.83 ± 2.3 Å²
LQLEIDQKK [_LQLEIDQK(GlyGly (K))K_],collision cross section,[6],376.75 ± 0.46 Å²
same,collision cross section,[7],433 ± 2.7 Å²
YEATSVQQK [_Y(Nitro (Y))EATSVQQK_],collision cross section,[8],342.71 ± 0.55 Å²
TEVLSPNSKVESK [_TEVLSPNSK(GlyGly (K))VESK_],collision cross section,[6],404.73 ± 5.7 Å²
same,collision cross section,[7],492.13 ± 0.88 Å²
ILDLKTGTVK [_ILDLK(Butyryl)TGTVK_],collision cross section,[9],361.67 ± 1.2 Å²
PANEKATDDYHYEK [_PANEK(Dimethyl (K))ATDDYHYEK_],collision cross section,[10],491.56 Å²
DAEAAEATAEGALKAEK [_DAEAAEATAEGALK(Biotin)AEK_],collision cross section,[11],451.86 Å²
same,collision cross section,[12],551.51 Å²
ISALQGKLSK [_ISALQGK(hydroxyisobutyryl)LSK_],collision cross section,[13],359.85 ± 0.79 Å²
GGSGGRGVSVSSAR [_GGSGGR(Citrullination (R))GVSVSSAR_],collision cross section,[14],361.74 ± 2.3 Å²
same,collision cross section,[15],445.09 ± 2.9 Å²
DTPTSAGPNSFNKGK [_DTPTSAGPNSFNK(Dimethyl (K))GK_],collision cross section,[16],406.79 ± 1.1 Å²
same,collision cross section,[10],455.12 ± 1.6 Å²
DKALPLEAEVAPVK [_DK(Gluratylation)ALPLEAEVAPVK_],collision cross section,[17],424.54 ± 0.97 Å²
GRGLPGPAESLR [_GR(Citrullination (R))GLPGPAESLR_],collision cross section,[14],366.62 ± 0.53 Å²
YHEDIFGLTLR [_Y(Nitro (Y))HEDIFGLTLR_],collision cross section,[8],391.96 ± 0.8 Å²
same,collision cross section,"charge state: 3, modification: Nitro (Y)",465.92 ± 0.23 Å²
LGNDFHTNKR [_LGNDFHTNK(hydroxyisobutyryl)R_],collision cross section,[13],382.96 ± 0.86 Å²
same,collision cross section,[18],448.25 ± 2.7 Å²
FLQEFYQDDELGKK [_FLQEFYQDDELGK(GlyGly (K))K_],collision cross section,[6],460.97 ± 1.6 Å²
same,collision cross section,[7],512.67 ± 1.3 Å²
AGPNASIISLKSDK [_AGPNASIISLK(Acetyl (K))SDK_],collision cross section,[4],408.51 ± 3 Å²
GVQYLNEIK [_GVQY(Phospho (Y))LNEIK_],collision cross section,[19],357.38 ± 0.065 Å²
LDEKENLSAK [_LDEK(Malonyl)ENLSAK_],collision cross section,[20],361.65 ± 0.75 Å²
GEKGDPGLIGPK [_GEKGDP(Hydroxyproline)GLIGPK_],collision cross section,[21],375.69 ± 1.9 Å²
same,collision cross section,[22],437 ± 1.3 Å²
LAPEYEAAATR [_LAPEY(Phospho (Y))EAAATR_],collision cross section,[19],374.2 ± 0.063 Å²
SLGEPAAGEGSAKR [_SLGEPAAGEGSAK(Propionyl)R_],collision cross section,[23],383.35 ± 1.5 Å²
same,collision cross section,[1],488 ± 0.51 Å²
VDIDAPDVSIEGPDAKLK [_VDIDAPDVSIEGPDAK(Crotonyl)LK_],collision cross section,[24],471.19 ± 1.1 Å²
GGFQNRGGGSGGGGNYR [_GGFQNR(Citrullination (R))GGGSGGGGNYR_],collision cross section,[14],403.21 ± 0.81 Å²
same,collision cross section,[15],503.84 Å²
DDSFLGKLGGTLAR [_DDSFLGK(Malonyl)LGGTLAR_],collision cross section,[20],411.31 ± 1 Å²
same,collision cross section,[25],489.57 ± 2.2 Å²
LEEVTGKLQVAR [_LEEVTGK(Crotonyl)LQVAR_],collision cross section,[24],398.71 ± 0.79 Å²
TQSFSLQER [_T(HexNAc (ST))QSFSLQER_],collision cross section,[26],373.04 ± 0.83 Å²
LTEKELAEAASK [_LTEK(Succinyl)ELAEAASK_],collision cross section,[27],389.23 ± 1.1 Å²
same,collision cross section,[28],454.1 Å²
FLQEFYQDDELGKK [_FLQEFYQDDELGK(Formyl)K_],collision cross section,[29],444.03 ± 0.77 Å²
LQLEIDQKK [_LQLEIDQK(Methyl (K))K_],collision cross section,[2],367.47 ± 2.8 Å²
same,collision cross section,[3],429.39 ± 5.2 Å²
GAEKTEVAEPR [_GAEK(Crotonyl)TEVAEPR_],collision cross section,[24],370.18 ± 9 Å²
TLQKQSVVYGGK [_TLQK(Propionyl)QSVVYGGK_],collision cross section,[23],393.92 ± 0.49 Å²
GEKGLPGLAGDHGEFGEK [_GEKGLP(Hydroxyproline)GLAGDHGEFGEK_],collision cross section,[22],558.56 ± 0.81 Å²
DFDTALKHYDK [_DFDTALK(Butyryl)HYDK_],collision cross section,[9],408.66 ± 0.23 Å²
same,collision cross section,"charge state: 3, modification: Butyryl",465.65 ± 2.9 Å²
SSGPGGQNVNKVNSK [_SSGPGGQNVNK(Malonyl)VNSK_],collision cross section,[20],402.61 ± 1.8 Å²
same,collision cross section,[25],439.94 ± 2.2 Å²
SSGPGGQNVNKVNSK [_SSGPGGQNVNK(GlyGly (K))VNSK_],collision cross section,[6],407.13 ± 1.4 Å²
same,collision cross section,[7],459.52 ± 3 Å²
GEVQVSDKER [_GEVQVSDK(Dimethyl (K))ER_],collision cross section,[16],362.93 ± 0.58 Å²
same,collision cross section,[10],422.58 ± 1.6 Å²
DESFLGKLGGTLAR [_DESFLGK(Malonyl)LGGTLAR_],collision cross section,[20],413.79 ± 1.2 Å²
same,collision cross section,[25],487.95 Å²
LGVPGLPGYPGR [_LGVPGLPGYP(Hydroxyproline)GR_],collision cross section,[21],362.53 ± 0.8 Å²
LAEEENKAK [_LAEEENK(Trimethyl (K))AK_],collision cross section,[30],353.67 ± 0.62 Å²
same,collision cross section,[31],413.12 Å²
IQTKAGEATVK [_IQTK(Dimethyl (K))AGEATVK_],collision cross section,[16],367.67 ± 0.82 Å²
TATLATLATR [_TATLATLAT(HexNAc (ST))R_],collision cross section,[26],364.8 ± 0.64 Å²
GRGAANDSTQFTVAGR [_GR(Methyl (R))GAANDSTQFTVAGR_],collision cross section,"charge state: 3, modification: Methyl (R)",468.2 ± 2.7 Å²
GAEKTEVAEPR [_GAEK(Acetyl (K))TEVAEPR_],collision cross section,[4],370.22 ± 7.6 Å²
VFSIISSEKELK [_VFSIISSEK(Dimethyl (K))ELK_],collision cross section,[16],416.15 ± 1.1 Å²
same,collision cross section,[10],490.22 ± 1.2 Å²
GTISAPGKVVTAAAQAK [_GTISAPGK(Malonyl)VVTAAAQAK_],collision cross section,[20],432.93 ± 5.1 Å²
same,collision cross section,[25],519.93 ± 1.9 Å²
TQAYQDQKPGTSGLR [_TQAYQDQK(Propionyl)PGTSGLR_],collision cross section,[23],428.95 ± 1.4 Å²
YEITEQR [_Y(Phospho (Y))EITEQR_],collision cross section,[19],328.08 ± 0.068 Å²
DTPTSAGPNSFNKGK [_DTPTSAGPNSFNK(Acetyl (K))GK_],collision cross section,[4],406.79 ± 1.5 Å²
AAQASDLEKIHLDEK [_AAQASDLEK(Formyl)IHLDEK_],collision cross section,[29],452.43 ± 0.71 Å²
same,collision cross section,[32],490.12 ± 2.1 Å²
DSINFLDHINGKK [_DSINFLDHINGK(Succinyl)K_],collision cross section,[28],461.79 Å²
LQAAYAGDKADDIQK [_LQAAYAGDK(Trimethyl (K))ADDIQK_],collision cross section,[30],440.52 ± 0.59 Å²
same,collision cross section,[31],477.2 ± 1.8 Å²
LQDVSGQLSSSKK [_LQDVSGQLSSSK(Biotin)K_],collision cross section,[11],425.22 ± 2.6 Å²
same,collision cross section,[12],506.69 Å²
AGQKLIDVNHYAK [_AGQK(Acetyl (K))LIDVNHYAK_],collision cross section,[4],429.91 ± 1.7 Å²
same,collision cross section,[5],479.89 ± 2.5 Å²
DYSAPVNFISAGLKK [_DYSAPVNFISAGLK(Acetyl (K))K_],collision cross section,[4],433.43 ± 2.4 Å²
same,collision cross section,[5],518.95 ± 1.1 Å²
ITLSKHQNVQLPR [_ITLSK(hydroxyisobutyryl)HQNVQLPR_],collision cross section,[13],443.83 ± 0.038 Å²
same,collision cross section,[18],520.86 ± 27 Å²
SDSGKPYYYNSQTK [_SDSGK(Methyl (K))PYYYNSQTK_],collision cross section,[2],422.21 Å²
same,collision cross section,[3],475.71 ± 2.9 Å²
DAIHFYNKSLAEHR [_DAIHFYNK(Formyl)SLAEHR_],collision cross section,[29],447.82 Å²
same,collision cross section,[32],498.82 ± 2.2 Å²
TGGTQTDLFTCGKCK [_TGGTQTDLFTCGK(Gluratylation)CK_],collision cross section,[17],442.58 Å²
VGEFSGANKEK [_VGEFSGANK(Dimethyl (K))EK_],collision cross section,[16],376.33 ± 1.2 Å²
same,collision cross section,[10],440.62 ± 2.8 Å²
PASGAGAGAGAGKR [_PASGAGAGAGAGK(Crotonyl)R_],collision cross section,[24],364.92 ± 9.9 Å²
same,collision cross section,[33],464.44 ± 2.8 Å²
TQAYQDQKPGTSGLR [_TQAYQDQK(Gluratylation)PGTSGLR_],collision cross section,[17],436.36 ± 1.1 Å²
same,collision cross section,"charge state: 3, modification: Glutarylation",483.65 ± 1 Å²
TTEETSKPK [_TTEETSK(Succinyl)PK_],collision cross section,[27],347.17 ± 0.86 Å²
INNFSADIKDSK [_INNFSADIK(Crotonyl)DSK_],collision cross section,[24],405.9 ± 0.28 Å²
same,collision cross section,[33],458.84 ± 1.6 Å²
GETASKLQSEISR [_GETASK(hydroxyisobutyryl)LQSEISR_],collision cross section,[13],394.7 ± 0.81 Å²
VETTVTSLKTK [_VETTVTSLK(Butyryl)TK_],collision cross section,[9],389.24 ± 1.3 Å²
